This passage reports Kd results from article PMC6965034 (2019).

To fix the notation:
B2: GST-tagged PAK1 (Y270-H545) (domain or fragment)
chain: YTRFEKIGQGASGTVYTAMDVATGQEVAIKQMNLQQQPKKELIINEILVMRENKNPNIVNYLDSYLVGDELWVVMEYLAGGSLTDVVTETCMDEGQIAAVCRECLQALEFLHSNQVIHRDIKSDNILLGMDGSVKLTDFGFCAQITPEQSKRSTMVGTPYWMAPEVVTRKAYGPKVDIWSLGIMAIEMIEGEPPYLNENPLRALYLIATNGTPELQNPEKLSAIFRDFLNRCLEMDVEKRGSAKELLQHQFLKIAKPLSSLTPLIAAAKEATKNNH

Among the targets are sortilin-cd peptide C (human); sortilin-cd peptide A (human); sortilin-cd peptide B (human).
Common to all, as to experiment: ITC
For assay [1], the target named is B2.

Chain of sortilin-cd peptide A (human) (Q13153 270-545): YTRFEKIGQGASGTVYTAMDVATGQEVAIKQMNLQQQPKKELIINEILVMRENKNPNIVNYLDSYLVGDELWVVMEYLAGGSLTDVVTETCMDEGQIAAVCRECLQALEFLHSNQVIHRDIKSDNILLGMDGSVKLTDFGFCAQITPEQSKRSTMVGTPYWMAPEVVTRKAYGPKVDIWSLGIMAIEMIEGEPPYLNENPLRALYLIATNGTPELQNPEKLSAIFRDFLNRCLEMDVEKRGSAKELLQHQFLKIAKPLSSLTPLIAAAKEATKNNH
Chain of sortilin-cd peptide B (human) (Q13153 270-545): as above
Chain of sortilin-cd peptide C (human) (Q13153 270-545): as above

B1: complete sortilin cytoplasmic domain (K779-E831), GST tag removed (domain or fragment)
chain: KKYVCGGRFLVHRYSVLQQHAEANGVDGVDALDTASHTNKSGYHDDSDEDLLE
What is called Kd is the constant that tells how readily two partners part at equilibrium. Low values mean tighter binding, high ones weaker binding. Molecule B1 had a Kd in assay [1] of 1.8 µM.
As to B2, the Kd with sortilin-cd peptide C is 3.6 µM; in the assay with sortilin-cd peptide A it was 14.1 µM; in the assay with sortilin-cd peptide B, 12.6 µM.
